The results in this text go back to paper doi:10.1101/2025.06.12.659326.

The assay deals with dynein light intermediate chain 2 (LIC2). Description: anti-HA IP of LIC2-HA, GFP blot. Conditions: reference: GFP-WT OCLN; sites S490.

Turning to “occludin (OCLN) (from UniProt Q16625) GFP-S490A”, the other: reduction vs WT came out at 25%.

The substance “occludin (OCLN) (from UniProt Q16625) GFP-S490D” gave an other: reduction vs WT of 25%.
